Test results: patent US20160194391A1 (AstraZeneca / MedImmune, published 2016)
Like-named read-outs stand apart in the source and are kept apart here.

Experiments:
[1] = molecular target: T1, primate IL-23 (p40:p19 fusion, 6×HIS) (primate); test: cell-based or functional assay
T1 chain: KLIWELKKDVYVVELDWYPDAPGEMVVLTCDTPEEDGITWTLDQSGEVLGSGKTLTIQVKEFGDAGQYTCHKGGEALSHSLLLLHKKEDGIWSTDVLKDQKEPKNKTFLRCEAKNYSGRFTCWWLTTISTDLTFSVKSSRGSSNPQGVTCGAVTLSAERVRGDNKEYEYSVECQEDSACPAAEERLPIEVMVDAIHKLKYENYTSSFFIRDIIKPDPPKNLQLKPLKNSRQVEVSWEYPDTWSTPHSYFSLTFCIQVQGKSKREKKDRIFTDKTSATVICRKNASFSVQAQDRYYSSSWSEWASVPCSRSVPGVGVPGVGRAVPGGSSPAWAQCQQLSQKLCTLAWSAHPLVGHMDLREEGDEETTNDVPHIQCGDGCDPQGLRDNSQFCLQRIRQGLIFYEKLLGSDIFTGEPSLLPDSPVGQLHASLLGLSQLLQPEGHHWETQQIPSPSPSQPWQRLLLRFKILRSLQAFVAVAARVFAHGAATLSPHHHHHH

[2] = molecular target: T2, human IL-12 (human, UniProt P29459 23-219; P29460 23-328); test: ELISA, human IL-12 coated on the plate; antibody concentration not given [Binding to Human IL-12]
T2 construct: Bioassay used Prospec-Tany Cyt-362
T2 sequence (looked up) 1: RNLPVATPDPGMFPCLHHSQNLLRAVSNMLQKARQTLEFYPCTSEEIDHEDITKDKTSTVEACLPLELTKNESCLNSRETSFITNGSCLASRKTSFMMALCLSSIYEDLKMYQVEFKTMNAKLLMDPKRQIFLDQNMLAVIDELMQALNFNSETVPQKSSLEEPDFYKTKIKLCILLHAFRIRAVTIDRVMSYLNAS
T2 sequence (looked up) 2: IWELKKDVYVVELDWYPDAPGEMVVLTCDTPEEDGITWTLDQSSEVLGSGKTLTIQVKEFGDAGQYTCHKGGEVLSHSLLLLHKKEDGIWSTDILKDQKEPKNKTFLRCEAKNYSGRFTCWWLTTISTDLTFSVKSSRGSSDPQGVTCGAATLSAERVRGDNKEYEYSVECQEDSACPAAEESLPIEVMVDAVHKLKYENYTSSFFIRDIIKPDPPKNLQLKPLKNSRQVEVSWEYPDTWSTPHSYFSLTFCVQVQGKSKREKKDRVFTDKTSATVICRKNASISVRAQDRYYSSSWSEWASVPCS

[3] = molecular target: T3, human IL-12 p40 subunit (human, UniProt P29460 23-328); test: ELISA, human IL-12 p40 subunit coated on the plate; antibody concentration not given [Binding to human IL-12 p40]
T3 construct: Coated on ELISA plates
T3 sequence (looked up): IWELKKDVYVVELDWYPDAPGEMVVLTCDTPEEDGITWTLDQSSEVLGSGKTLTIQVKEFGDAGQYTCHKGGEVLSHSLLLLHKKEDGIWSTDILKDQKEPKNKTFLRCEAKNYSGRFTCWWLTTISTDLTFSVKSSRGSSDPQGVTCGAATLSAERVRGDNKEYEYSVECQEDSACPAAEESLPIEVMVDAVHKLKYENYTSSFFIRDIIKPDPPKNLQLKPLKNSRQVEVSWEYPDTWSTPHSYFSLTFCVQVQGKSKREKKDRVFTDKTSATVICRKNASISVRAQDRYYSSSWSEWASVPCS

[4] = molecular target: T4, human dimeric IL-23 (eBiosciences 34-8239) (human, UniProt P29460 23-328; Q9NPF7 20-189); test: cell-based or functional assay
T4 sequence (looked up) 1: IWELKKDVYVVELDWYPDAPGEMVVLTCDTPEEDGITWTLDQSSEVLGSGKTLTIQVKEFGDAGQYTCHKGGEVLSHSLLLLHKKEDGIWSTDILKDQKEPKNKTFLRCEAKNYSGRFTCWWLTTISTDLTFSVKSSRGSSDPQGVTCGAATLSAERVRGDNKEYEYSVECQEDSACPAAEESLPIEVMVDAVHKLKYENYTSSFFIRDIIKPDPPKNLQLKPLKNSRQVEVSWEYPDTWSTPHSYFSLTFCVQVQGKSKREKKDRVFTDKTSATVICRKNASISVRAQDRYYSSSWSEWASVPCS
T4 sequence (looked up) 2: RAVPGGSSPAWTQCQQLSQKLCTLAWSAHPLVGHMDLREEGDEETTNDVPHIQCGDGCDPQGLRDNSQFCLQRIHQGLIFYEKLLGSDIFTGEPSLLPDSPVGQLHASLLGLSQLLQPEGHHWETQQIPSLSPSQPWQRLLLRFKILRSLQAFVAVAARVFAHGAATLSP

[5] = molecular target: T5, IL-23 p40-p19-His (human); test: ELISA on IL-23 p40-p19-His
T5 construct: Single-chain fusion coated on the IL-23 ELISA plates; also called p40:p19-6×HIS
T5 chain: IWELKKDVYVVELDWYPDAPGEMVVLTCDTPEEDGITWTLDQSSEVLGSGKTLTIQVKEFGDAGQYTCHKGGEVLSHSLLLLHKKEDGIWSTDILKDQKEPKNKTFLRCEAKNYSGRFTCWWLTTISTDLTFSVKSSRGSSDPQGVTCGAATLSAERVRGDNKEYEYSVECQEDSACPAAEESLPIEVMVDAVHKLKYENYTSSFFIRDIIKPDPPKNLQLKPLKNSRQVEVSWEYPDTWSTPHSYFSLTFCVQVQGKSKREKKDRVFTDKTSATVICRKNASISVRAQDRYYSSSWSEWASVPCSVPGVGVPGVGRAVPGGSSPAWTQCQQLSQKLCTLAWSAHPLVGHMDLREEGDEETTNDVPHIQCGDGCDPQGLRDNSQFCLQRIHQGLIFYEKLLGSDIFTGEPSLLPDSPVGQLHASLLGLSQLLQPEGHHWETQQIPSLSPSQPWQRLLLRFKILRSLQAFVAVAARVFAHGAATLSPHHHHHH

[6] = molecular target: T4, human dimeric IL-23 (eBiosciences …); test: cell-based or functional assay; remark: listed apart in the source
[7] = molecular target: T6, monkey IL-12 (macaque) (macaque, UniProt P48091 23-219; P48095 23-328); test: cell-based or functional assay
T6 sequence (looked up) 1: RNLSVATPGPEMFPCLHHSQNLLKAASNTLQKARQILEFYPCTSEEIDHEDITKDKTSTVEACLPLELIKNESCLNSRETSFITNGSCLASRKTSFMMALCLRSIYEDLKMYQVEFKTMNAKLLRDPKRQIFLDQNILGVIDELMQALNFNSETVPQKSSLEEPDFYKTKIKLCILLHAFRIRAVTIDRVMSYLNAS
T6 sequence (looked up) 2: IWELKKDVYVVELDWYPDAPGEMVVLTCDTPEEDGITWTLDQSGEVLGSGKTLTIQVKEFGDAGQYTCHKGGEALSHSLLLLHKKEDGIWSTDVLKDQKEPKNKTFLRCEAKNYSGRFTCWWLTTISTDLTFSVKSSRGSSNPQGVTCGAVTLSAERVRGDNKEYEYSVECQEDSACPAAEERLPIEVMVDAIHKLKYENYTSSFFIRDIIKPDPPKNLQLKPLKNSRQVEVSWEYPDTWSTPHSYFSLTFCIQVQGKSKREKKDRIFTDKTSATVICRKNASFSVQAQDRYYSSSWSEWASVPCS

[8] = molecular target: T6, monkey IL-12 (macaque); test: cell-based or functional assay; remark: listed apart in the source
[9] = molecular target: T2, human IL-12; test: IL-12 binding assay of the selection not described
[10] = molecular target: T7, human IL-6 (human, UniProt P05231 30-212); test: cell-based or functional assay
[11] = molecular target: T4, human dimeric IL-23 (eBiosciences …); test: cell-based or functional assay; remark: listed apart in the source
[12] = molecular target: T2, human IL-12; test: cell-based or functional assay
[13] = molecular target: T4, human dimeric IL-23 (eBiosciences …); test: cell-based or functional assay; remark: listed apart in the source
[14] = molecular target: T4, human dimeric IL-23 (eBiosciences …); test: SPR (SensiQ Pioneer), mAb captured on protein G, human dimeric IL-23 as analyte (1-100 nM), 25 C, 1:1 model; the sentence names no analyte
Procedure: (§1) Equilibrium constants for rabbit human chimeric mAbs were determined by binding the mAb to the protein G coated chip followed by binding of each analyte (IL-6 or IL-23) to its respective mAb. In order to minimize mass transfer effects, the surface densities of the mAbs for each analyte were adjusted so that as analyte binding approached saturation its corresponding RU fell between 200 and 300. […] For each binding and dissociation cycle the chip surface was regenerated with 15 uL of 20 mM NaOH (5671-02, Mallinckrodt Baker, Philliphsburg, N.J.). The assay temperature was maintained at 25° C. with an analyte flow rate of 50 μL/min and included a 2 minute association phase and 10-30 minute dissociation phase. The on/off rates (kₐ/kd) and dissociation constants (KD) were determined using the format described above along with pseudo-first-order 1:1 interaction model software (Qdat, ICx Nomadics, Stillwater, Okla.).

[15] = molecular target: T7, human IL-6; test: cell-based or functional assay; remark: listed apart in the source
[16] = molecular target: T8, Primate IL-6 (Macaca mulatta, UniProt P51494); test: cell-based or functional assay
T8 sequence (cytokine, looked up): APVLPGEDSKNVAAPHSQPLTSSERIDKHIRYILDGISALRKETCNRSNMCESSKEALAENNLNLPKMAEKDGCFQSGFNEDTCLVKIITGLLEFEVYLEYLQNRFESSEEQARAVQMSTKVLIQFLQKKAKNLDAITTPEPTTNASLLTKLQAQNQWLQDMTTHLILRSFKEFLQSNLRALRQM

[17] = molecular target: T7, human IL-6; test: SPR (SensiQ Pioneer), mAb captured on protein G, IL-6 as analyte (3×FLAG-IL-6 or IL-6 CYT-213, 1-100 nM), 25 C, 1:1 model
Procedure: as §1

B1: 31A12 chimeric mAb (antibody, V domains shown)
VH: QSLEESGGRLVTPGTPLTLTCTASGFSLSSYWMTWVRQAPGGGLEWIGTIATSSTYYASWAKGRFTISRTSTTVDLKMTSLTTEDTATYFCARGLTTDYDLDLWGPGTLVTVSS
VL: LVMTQTPASVSAAVGGTVTINCQASEDIESYLAWYQQKPGQRPKLLIYSASTLTSGVPSRFKGSGSGKQFTLTISGVQREDAATYYCLGADDTTTVFGGGTKVVVVR
notes: Rabbit/human chimeric IgG (human IgG1, kappa); HEK293; also called 31A12 mAb
IC50 (read off the curve) (IL-17 from mouse splenocytes, OD450) [1]: ~0.2 ng/mL
binding result [2]: binds
binding result [3]: binds

B2: 45G5 chimeric mAb (antibody, V domains shown)
VH: QSVEESGGRLVTPGTPLTLTCTVSGFSLSVYPINWVRQAPGKGLGWIGIINDVDDTAYSAWAKGRFTISKASSTTVDLKITSPTTEDTATYFCARGYLSYAYAGDAFDPWGPGTLVTVSS
VL: AVLTQTPSPVSAAVGGTVTIKCQSSQSIYNNNLLSWYQQKPGQPPRLLIHFASTLASGVPDRFSGSGSGTQFTLTISGVQCDDAATYYCLGGYDDDADTAFGGGTEVVVV
notes: Rabbit/human chimeric IgG (human IgG1, kappa); HEK293; also called mAb 45G5
EC50: concentration necessary to inhibit bioactivity of 50 pg/ml of IL-6 [4]: 0.385 ng/mL
binding result [5]: binds
IC50 (read off the curve) (IL-17 from mouse splenocytes, OD450) [6]: ~2 ng/mL
IC50 (read off the curve) [7]: ~4 ng/mL
IC50 (read off the curve) (interferon-gamma from NK92 cells, OD450) [8]: ~4 ng/mL
binding result [9]: binds

B3: 9C8 Hum scFv v3-2 (scFv)
scFv: DIQMTQSPSSVSASVGDRVTITCQASQSISNELSWYQQKPGKAPKLLIYRTSTLASGVPSRFSGSGSGTDFTLTISSLQPEDFATYYCQQGYNSNDVDNVFGGGTKVEIKGGGGSGGGGSGGGGSGGGGSEVQLVESGGGLVQPGGSLRLSCAASGIDLSSYDMSWVRQAPGKGLEWVGYIYTDSSTYYANWAKGRFTISRDNSKNTLYLQMNSLRAEDTAVYYCARGSTDYAFDTRLDLWGQGTLVTVSSGPPPPPHHHHHH
IC50 (read off the curve) (B9 proliferation, OD570-600) [10]: ~0.7 ng/mL

B4: 31A12c-PEG20 (scFv)
scFv: DIQLTQSPSFLSASVGDRVTITCQASEDIESYLAWYQQKPGKAPKLLIYSASTLTSGVPSRFSGSGSGTEFTLTISSLQPEDFATYYCLGADDTTTVFGGGTKVEIKGGGGSGGGGSGGGGSGGGGSEVQLVESGGGLVQPGGSLRLSCTASGFSLSSYWLTWVRQAPGKGLEWVGTIATSSTYYASWAKGRFTISRDNSKNTLYLQLNSLRAEDTAVYYCARGLTTDYDLDLWGQGTLVTVSS
modifications: C-terminal azidohomoalanine (Aha) conjugated to 20 kDa linear PEG bis-alkyne
EC50 (pg/mL) of the folded scFv-PEG [11]: 1040 pg/mL

B5: 22H8 chimeric mAb (antibody, V domains shown)
VH: QSLEESGGRLVTPGTPLTLTCTVSGFSLSTYTMNWVRQSPGKGLEWIGAISYDGGTAYANWAKGRFTISKTSTTVDLQIASPTTEDTATYFCARGFYVYAYIGDAFDPWGPGTLVTVSS
VL: AVLTQTPSPVSATVGGTVTIKCQSSQTVYKNNLLSWYQQKPGQPPKLLIYLASTLASGVPSRFSGSGSGTQFTLTISGVQCDDAATYYCLGGYDDDADTAFGGGTEVVVVR
notes: Rabbit/human chimeric IgG (human IgG1, kappa); HEK293; also called mAb 22H8
EC50: concentration necessary to inhibit bioactivity of 50 pg/ml of IL-6 [4]: 0.603 ng/mL
binding result [5]: binds
IC50 (read off the curve) (IL-17 from mouse splenocytes, OD450) [1]: ~4 ng/mL
IC50 (read off the curve) (interferon-gamma from NK92 cells, OD450) [12]: ~0.8 ng/mL
IC50 (read off the curve) (IL-17 from mouse splenocytes, OD450) [13]: ~0.8 ng/mL
Kd [14]: 221 pM
koff [14]: 8.94e-05 s⁻¹
kon [14]: 403000 M⁻¹ s⁻¹

B6: 9H4 chimeric mAb (antibody, V domains shown)
VH: QSLEESGGRLVTPGTPLTLTCTASGFSLSSYDMSWVRQAPGKGLEWIGYIYTDTSTYYANWAKGRFSISKTSTTVDLKMTSLTAEDTATYFCAKGSTDYAFDTRLDLWGPGTLVTVSS
VL: YDMTQTPASVEVAMGGTVTIKCQASQSISNELSWYQQKPGQPPKLLIYRTSTLASGVSSRFKGSGSGTEYTLTISGVECADAATYYCQQGYNSNDVDNVFGGGTEVVVVR
notes: Rabbit/human chimeric IgG (human IgG1, kappa); HEK293; also called 9H4 clone
EC50, inhibition of IL-6 induced B9 cell proliferation [15]: 0.109 ng/mL
IC50 (read off the curve) (B9 proliferation, OD570-600) [16]: ~10 ng/mL
Kd [17]: 58 pM
koff [17]: 4.75e-05 s⁻¹
kon [17]: 816000 M⁻¹ s⁻¹
